The values that follow come from article doi:10.1101/2020.06.12.148478 (bioRxiv, 2020).

The target of data set [1] is TacA (Caulobacter crescentus). The data set is described as follows: SEC-MALS. On the technique in general: In gel filtration, larger molecules generally elute earlier.
In data set [2] the target is T1, SpbR (Caulobacter crescentus, UniProt Q9A5X4 1-377).
T1 sequence (looked up): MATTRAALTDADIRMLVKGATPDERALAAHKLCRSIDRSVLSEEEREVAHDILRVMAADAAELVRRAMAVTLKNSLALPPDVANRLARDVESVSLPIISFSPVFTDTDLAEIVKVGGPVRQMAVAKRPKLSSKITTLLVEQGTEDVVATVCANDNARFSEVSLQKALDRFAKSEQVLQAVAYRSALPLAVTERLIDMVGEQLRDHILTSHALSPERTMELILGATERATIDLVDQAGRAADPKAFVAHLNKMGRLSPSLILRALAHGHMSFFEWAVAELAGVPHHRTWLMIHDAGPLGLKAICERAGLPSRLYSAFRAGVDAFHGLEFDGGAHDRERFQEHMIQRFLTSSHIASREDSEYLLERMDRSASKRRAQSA
The data set is described as follows: ITC. In general terms: In ITC the heat of successive injections is recorded.

The target of data set [3] is PopA (Caulobacter crescentus). The experiment in a line: SEC-MALS.
The data set “MST” concerns the molecule itself. The data set is described as follows: MST.
In data set [4] the target is T1, SpbR. The experiment in a line: SEC-MALS.
The data set “SEC-MALS” concerns the molecule itself. The experiment in a line: SEC-MALS.

As a reminder, the stoichiometry N is a count of units in the complex or per binding partner. In turn, TacA (natural protein) gave a stoichiometry N in data set [1] of 2 subunits.

B1: RcdA (natural protein, Caulobacter crescentus, UniProt A0A0H3CD07 1-169, looked up)
chain: MTEVNAFADTPWRAGVIQDFARSELFDRTFEEGMQLVEETAAYLDGAGRHDSKVLSRNAALGYATESMRLTTRLMQVASWLLVQRAVREGEMPPEAACAEAYRLAEEAPADGPAVEELPFGLMNLLQRSERLYERVRHLDRRMYVESPNEEAPRPVQNQLDRLTAAFGG
modifications: Fluorescin-5-Maleimide on cysteine in the fluorescence polarisation and MST experiments only; unlabelled elsewhere
The Kd is the concentration at which binding is half-saturated. Lower therefore signals tighter binding. With B1, the Kd was found to be 3.3 µM with SpbR [2] and 2.9 µM in “MST”. The stoichiometry N (RcdA per PopA) in data set [3] came out at 1. Also, the stoichiometry N (RcdA per TacA chain (1 RcdA : 2 TacA)) in data set [1] came out at 0.5. In addition, the “stoichiometry N” value with SpbR [4] worked out at 1 RcdA per SpbR; in “SEC-MALS” it was 2 subunits.
